Among the data in publication PMC3377380 are fold slower dissociation than wild type values, retold here.

The target of this test is GST-Obsc_(6316–6345) (Rattus norvegicus). The experiment in a line: SPR. (SPR reads the build-up and loss of mass on a sensor chip optically.)

The substance “sAnk1-I102F (MBP fusion) (domain or fragment)” gave a fold slower dissociation than wild type of 3 times.
